Measured values from patent US6887705B1, “Tyrosine phosphorylated cleavage furrow-associated proteins (PSTPIPs)” (Genentech, Inc., priority 1997, dated 2005).

Key:
Test in all cases: in vitro translated PTP HSCF mutant precipitated with 1 or 10 µg/ml GST PST PIP
[1] = biological target: T1, PTP HSCF with P443 mutated to alanine, HA tagged (UniProt Q61152 1-453)
T1 construct: range 1-453; also called HSCF P443
T1 sequence (looked up): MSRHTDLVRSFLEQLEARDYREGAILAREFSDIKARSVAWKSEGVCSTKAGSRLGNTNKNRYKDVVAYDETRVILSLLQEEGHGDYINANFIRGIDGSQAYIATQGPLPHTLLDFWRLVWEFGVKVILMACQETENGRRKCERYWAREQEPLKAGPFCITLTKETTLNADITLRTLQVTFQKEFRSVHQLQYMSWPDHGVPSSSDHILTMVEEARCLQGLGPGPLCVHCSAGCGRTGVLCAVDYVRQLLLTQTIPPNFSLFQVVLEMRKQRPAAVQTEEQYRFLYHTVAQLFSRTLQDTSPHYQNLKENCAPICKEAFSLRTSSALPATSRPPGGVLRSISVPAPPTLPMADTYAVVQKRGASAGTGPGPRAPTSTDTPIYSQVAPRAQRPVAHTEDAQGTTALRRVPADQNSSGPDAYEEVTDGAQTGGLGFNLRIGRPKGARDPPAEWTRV
Experimental: (§1) Multiple bands precipitated with the GST PST PIP fusion protein are apparently C-terminal proteolyzed products of the PTP. Also shown are GST PST PIP precipitations (10 μg/ml) performed on a double mutant of PTP HSCF (R+W) with both residues $R444$ and $W450$ mutated to alanine (bottom panel FIG. 14 A/2). B. COS cells were co-transfected with a 10:1 ratio of plasmids encoding hemagglutinin (HA) tagged PTP HSCF with the illustrated alanine substitutions or a mutant of PTP HSCF deleted for the C-terminal 24 amino acids (PTP $HSCFD24$) and wild type PST PIP with a C-terminal FLAG epitope tag, respectively. Transfected cell lysates were immunoprecipitated with anti-HA monoclonal antibodies and the precipitates were blotted with anti-PST PIP polyclonal antibody to detect the relative amounts of PST PIP complexed with either wild type or different mutant forms of PTP HSCF. Lysates were also immunoprecipitated with anti-HA antibody and blotted with the same antibody to insure equal expression of PTP HSCF. Equal expression of PSTPIP was determined by immunoprecipitating lysates with anti-FLAG monoclonal antibody and blotting with anti-PST PIP polyclonal antibody.
(§2) In vitro binding analyses between various PTP HSCF and PST PIP constructs were performed as previously described (Spencer et al, (1997), supra). Briefly, plasmids were transcribed and translated in vitro using the TnT Rabbit Reticulocyte Lysate System (Promega). Samples were diluted in 50 mM HEPES, pH 7.2, 1% triton X-100, 10% glycerol, 100 mM NaCl, and 2 µg/ml each of leupeptin, pepstatin, aprotinin and PMSF (lysis buffer). Samples were than reacted with GST fusion proteins at various concentrations, and the bound proteins were centrifuged using glutathione-sepharose beads and analyzed on SDS polyacrylamide gels. C-terminally-derived peptide inhibition studies were performed by incubating the GST fusion protein binding reactions in the presence of 10 µg/ml of the indicated peptides. Peptides were produced by FMOC-protected amino acids as previously described (Spencer et al, (1997), supra). In vivo interactions between various forms of PTP HSCF and PST PIP were also performed as previously described (Spencer et al, (1997), supra).

[2] = biological target: T2, PTP HSCF with R444 mutated to alanine, HA tagged (UniProt Q61152 1-453)
T2 construct: range 1-453; also called HSCF R444
T2 sequence (looked up): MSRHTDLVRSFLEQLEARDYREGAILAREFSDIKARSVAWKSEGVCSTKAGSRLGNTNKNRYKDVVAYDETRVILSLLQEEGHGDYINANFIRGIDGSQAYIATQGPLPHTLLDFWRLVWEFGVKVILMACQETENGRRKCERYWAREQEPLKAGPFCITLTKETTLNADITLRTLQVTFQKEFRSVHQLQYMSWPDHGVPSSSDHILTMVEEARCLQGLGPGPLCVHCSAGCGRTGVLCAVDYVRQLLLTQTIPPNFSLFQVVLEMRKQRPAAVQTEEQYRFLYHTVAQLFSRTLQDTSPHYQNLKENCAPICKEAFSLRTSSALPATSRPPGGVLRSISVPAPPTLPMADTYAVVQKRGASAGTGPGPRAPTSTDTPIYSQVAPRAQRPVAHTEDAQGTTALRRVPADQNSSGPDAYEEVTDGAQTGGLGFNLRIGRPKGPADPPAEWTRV
Experimental: as §1, §2

[3] = biological target: T3, PTP HSCF with R436 mutated to alanine, HA tagged (UniProt Q61152 1-453)
T3 construct: range 1-453; also called HSCF R436
T3 sequence (looked up): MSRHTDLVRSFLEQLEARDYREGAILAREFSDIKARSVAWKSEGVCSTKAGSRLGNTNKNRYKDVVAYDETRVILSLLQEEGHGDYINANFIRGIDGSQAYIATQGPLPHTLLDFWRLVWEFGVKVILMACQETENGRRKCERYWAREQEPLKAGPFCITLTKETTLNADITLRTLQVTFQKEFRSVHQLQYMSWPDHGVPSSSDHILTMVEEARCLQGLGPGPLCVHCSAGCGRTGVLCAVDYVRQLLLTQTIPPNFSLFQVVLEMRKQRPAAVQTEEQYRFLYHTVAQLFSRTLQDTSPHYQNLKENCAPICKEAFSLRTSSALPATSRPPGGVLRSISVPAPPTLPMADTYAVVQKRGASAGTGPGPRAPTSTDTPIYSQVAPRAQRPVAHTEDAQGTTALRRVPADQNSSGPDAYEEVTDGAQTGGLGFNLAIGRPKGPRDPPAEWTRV
Experimental: as §1, §2

[4] = biological target: T4, PTP HSCF with W450 mutated to alanine, HA tagged (UniProt Q61152 1-453)
T4 construct: range 1-453; also called HSCF W450
T4 sequence (looked up): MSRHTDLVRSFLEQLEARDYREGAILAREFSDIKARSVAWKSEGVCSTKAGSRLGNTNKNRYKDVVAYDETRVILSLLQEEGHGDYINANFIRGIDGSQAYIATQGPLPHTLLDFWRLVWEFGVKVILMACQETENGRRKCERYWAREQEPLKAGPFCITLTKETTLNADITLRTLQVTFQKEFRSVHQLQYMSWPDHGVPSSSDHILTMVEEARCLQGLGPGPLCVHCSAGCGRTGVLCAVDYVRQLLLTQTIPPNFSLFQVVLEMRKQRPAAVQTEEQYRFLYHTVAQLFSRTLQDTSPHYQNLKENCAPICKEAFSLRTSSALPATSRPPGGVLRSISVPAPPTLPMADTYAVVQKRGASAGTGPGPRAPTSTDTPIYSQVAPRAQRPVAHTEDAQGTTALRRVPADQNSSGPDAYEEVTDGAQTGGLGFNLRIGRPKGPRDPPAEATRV
Experimental: as §1, §2

binding result [1]: binds
binding result [2]: binds
binding result [3]: binds
binding result [4]: binds
B1: GST-PSTPIP (GST fusion of full-length PSTPIP, amino acids 2-415) (other)
chain: MAQLQFRDAFWCRDFTAHTGYEVLLQRLLDGRKMCKDVEELLRQRAQAEERYGKELVQIARKAGGQTEMNSLRTSFDSLKQQTENVGSAHIQLALALREELRSLEEFRERQKEQRKKYEAIMDRVQKSKLSLYKKTMESKKAYDQKCRDADDAEQAFERVSANGHQKQVEKSQNKAKQCKESATEAERVYRQNIEQLERARTEWEQEHRTTCEAFQLQEFDRLTILRNALWVHCNQLSMQCVKDDELYEEVRLTLEGCDVEGDINGFIQSKSTGREPPAPVPYQNYYDREVTPLIGSPSIQPSCGVIKRFSGLLHGSPKTTPSAPAASTETLTPTPERNELVYASIEVQATQGNLNSSAQDYRALYDYTAQNSDELDISAGDILAVILEGEDGWWTVERNGQRGFVPGSYLEKL
notes: Made in DH5-alpha bacteria from pGEX4T-2; also called GST-full-length PSTPIP; GST PTP PIP; not shown: glutathione S-transferase encoded by pGEX-4T-2 (Pharmacia)
